Among the data in article PMC6926487 are immunoblot quantification of binding to active Rac1 (%) values, retold here.

The target of the test is GST-Rac1A, active (GTPγs-bound) (Dictyostelium) (UniProt P34144). In words: pull-down; GST-Rac on glutathione magnetic agarose beads, loaded with GTPγs; Dictyostelium lysate (50 mM Tris HCl pH 8, 100 mM NaCl, 30 mM MgCl2, 0.1% Triton X-100, 1 mM DTT) added for 1 hour at 4°C; immunoblot anti-GFP. (In western blotting, separated proteins are transferred to a membrane and probed.)

Substance “GFP-WASP (Dictyostelium Wiskott-Aldrich syndrome protein, wild type) (natural protein)” displayed an immunoblot quantification of binding to active Rac1 (%) of 1.9%.
